Measured values as given in patent US12209135B2, “Anti-CD45 antibodies and conjugates thereof” (priority 2019, dated 2025).

Columns and labels:
[1] = target: T1, rhesus CD45 ectodomain (Macaca mulatta, UniProt A0A1D5R142); assay: Biolayer interferometry (BLI, Octet) binding of immobilized IgG to purified CD45 ectodomain; settings: Table 2, Rhesus CD45
T1 construct: purified human, rhesus or cynomolgus CD45 ectodomain
T1 sequence (A0A1D5R142 26-581): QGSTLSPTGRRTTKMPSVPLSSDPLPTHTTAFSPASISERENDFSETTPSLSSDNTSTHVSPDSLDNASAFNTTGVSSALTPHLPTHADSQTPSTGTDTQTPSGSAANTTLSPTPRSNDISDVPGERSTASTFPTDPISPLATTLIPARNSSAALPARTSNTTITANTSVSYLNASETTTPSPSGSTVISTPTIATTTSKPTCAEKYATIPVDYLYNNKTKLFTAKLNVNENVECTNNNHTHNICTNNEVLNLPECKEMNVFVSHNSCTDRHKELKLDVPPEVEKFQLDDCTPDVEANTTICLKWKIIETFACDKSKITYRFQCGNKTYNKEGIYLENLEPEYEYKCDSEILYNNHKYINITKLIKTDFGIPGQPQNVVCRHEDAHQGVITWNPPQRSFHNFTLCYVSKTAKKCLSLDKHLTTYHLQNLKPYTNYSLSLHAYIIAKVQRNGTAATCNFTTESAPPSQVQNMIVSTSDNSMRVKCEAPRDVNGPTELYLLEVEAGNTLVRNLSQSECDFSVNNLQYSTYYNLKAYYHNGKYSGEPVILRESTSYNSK
Protocol: (§1) Antibody binding studies were performed at 25° C. in 1×PBS supplemented with 0.1% w/v bovine serum albumin with a Pall ForteBio Octet Red96 using biolayer interferometry (BLI).
The apparent monovalent affinity (KD), apparent association rate (KON), and apparent dissociation rate (KOFF) were determined by local full fitting with a 1:1 binding model as calculated by ForteBio data analysis software version 10 of each IgG to purified human, cynomolgus or rhesus CD45 ectodomain. […] Binding was confirmed using […]

[2] = Two-week thermal / pH stress stability by HIC and peptide mapping; format: physicochemical; settings: 4° C., 25° C., 40° C. for 15 days; high pH treatment
Protocol: A two-week stability assay was performed by incubating Ab3 and Ab4 at 4° C., 25° C., and 40° C. for 15 days, after which the antibodies were analyzed by […] (HIC). Briefly, 25 micrograms of the indicated antibody were injected onto a Tosoh TSKgel Phenyl-5PW 7.5 mm ID×7.5 cm 10-micron column (Catalog #07573) on a Waters ARC HPLC/UPLC system. […] This hydrophilic pre-peak was indicative of a potential site of post-translational modification (e.g., oxidation or deamidation). Peptide mapping was subsequently performed to identify which amino acids were modified in each antibody upon exposure to stress (high pH, low pH, and oxidative stress). The peptide mapping analysis identified a potential site of deamidation at an asparagine in CDR-L1 (N30 position) in response to high pH conditions (e.g., pH 8 or greater).
Accordingly, variants of Ab3 and Ab4 were generated in which the asparagine in CDR-L1 (e.g., at position 30B) was substituted with a serine. The resulting antibodies were named Ab7 and Ab5 respectively.

[3] = system: cynomolgus CD45 ectodomain; assay: Biolayer interferometry (BLI, Octet) binding of immobilized IgG to purified CD45 ectodomain; settings: Table 2, Cynomolgus CD45
Protocol: as §1
(§2) The apparent monovalent affinity (KD), apparent association rate (KON), and apparent dissociation rate (KOFF) were determined by local full fitting with a 1:1 binding model as calculated by ForteBio data analysis software version 10 of each IgG to purified human, cynomolgus or rhesus CD45 ectodomain. […] Binding was confirmed using
Briefly, antibody binding studies were performed at 25° C. in 1×PBS supplemented with 0.1% w/v bovine serum albumin with a PALL FORTEBIO OCTET RED96 using biolayer interferometry (BLI). […]
(§3) The apparent monovalent affinity (KD), apparent association rate (KON), and apparent dissociation rate (KDIS or KOFF) were determined by local full fitting with a 1:1 binding model as calculated by FORTEBIO data analysis software version 10. […] Each of the selected humanized antibodies AbA, AbB, and AbC was able to cross react with human and cynomolgus CD45.

[4] = target: T2, human CD45 ectodomain (Homo sapiens, UniProt P08575); assay: as above; settings: Table 2, Human CD45
T2 construct: purified human, rhesus or cynomolgus CD45 ectodomain
T2 sequence (P08575 26-577): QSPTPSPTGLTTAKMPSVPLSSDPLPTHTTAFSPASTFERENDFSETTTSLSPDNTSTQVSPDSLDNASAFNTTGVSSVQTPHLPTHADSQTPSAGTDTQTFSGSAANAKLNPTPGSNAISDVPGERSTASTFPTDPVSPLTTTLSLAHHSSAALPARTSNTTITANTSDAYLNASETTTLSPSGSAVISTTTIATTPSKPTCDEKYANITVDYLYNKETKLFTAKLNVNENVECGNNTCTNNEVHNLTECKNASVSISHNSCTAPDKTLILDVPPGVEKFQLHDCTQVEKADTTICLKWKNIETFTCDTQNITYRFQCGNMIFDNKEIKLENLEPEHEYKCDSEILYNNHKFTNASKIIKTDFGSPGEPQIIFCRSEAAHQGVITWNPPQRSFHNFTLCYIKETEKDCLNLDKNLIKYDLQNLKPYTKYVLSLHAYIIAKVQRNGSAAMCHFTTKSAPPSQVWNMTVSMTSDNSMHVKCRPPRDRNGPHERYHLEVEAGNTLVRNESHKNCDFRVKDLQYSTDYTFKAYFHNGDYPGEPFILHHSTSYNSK
Protocol: as §1, §2
Briefly, antibody binding studies were performed at 25° C. in 1×PBS supplemented with 0.1% w/v bovine serum albumin with a PALL FORTEBIO OCTET RED96 using biolayer interferometry (BLI). Each purified antibody was immobilized onto anti-human Fc biosensors (AHQ; PALL FORTEBIO 18-5001) and incubated with 100 nM of purified human or 300 nM of cynomolgus CD45 ectodomain.
as §3

Sequence of cynomolgus CD45 ectodomain (as listed by the source): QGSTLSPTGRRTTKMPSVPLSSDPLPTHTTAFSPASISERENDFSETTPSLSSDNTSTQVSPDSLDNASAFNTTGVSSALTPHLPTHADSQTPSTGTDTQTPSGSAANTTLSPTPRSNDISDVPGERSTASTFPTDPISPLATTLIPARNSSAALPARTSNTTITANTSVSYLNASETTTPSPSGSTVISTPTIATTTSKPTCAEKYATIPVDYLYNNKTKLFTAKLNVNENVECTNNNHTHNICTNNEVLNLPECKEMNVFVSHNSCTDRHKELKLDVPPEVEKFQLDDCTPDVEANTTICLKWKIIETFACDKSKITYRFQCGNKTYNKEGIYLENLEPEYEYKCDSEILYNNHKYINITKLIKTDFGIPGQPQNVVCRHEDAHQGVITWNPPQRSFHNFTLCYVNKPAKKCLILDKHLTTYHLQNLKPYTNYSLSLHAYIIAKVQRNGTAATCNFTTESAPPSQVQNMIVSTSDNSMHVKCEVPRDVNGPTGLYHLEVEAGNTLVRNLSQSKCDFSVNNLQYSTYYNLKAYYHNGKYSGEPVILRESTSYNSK

B1: Ab4: affinity matured human anti-CD45 IgG derived from Ab1; VH SEQ ID NO:31, VL SEQ ID NO:35 (antibody, V domains shown)
VH: EVQLVESGGGLVQPGGSLRLSCAASGFTFEAYSMNWVRQAPGKGLEWVSYISLSGATIHYADSVKGRFTISRDNAKNSLYLQMNSLRAEDTAVYYCARGGQYYYTSSDYGEVAFDIWGQGTMVTVSS
VL: DIVMTQSPLSLPVTPGEPASISCRSSQSLVSNGYNYLDWYLQKPGQSPQLLIYFGSSRASGVPDRFSGSGSGTDFTLKISRVEAEDVGVYYCMQRRRTPWSFGGGTKVEIK
With B1 the “Kdis” value [1] was 0.000102 s⁻¹, the “Kon” value [1] was 118000 M⁻¹ s⁻¹ and the Kd ([1]; 50 nM antigen (Ab1: 300 nM)) was 0.867 nM. For the same molecule, the “HIC hydrophilic pre-peak (deamidated species)” value [2] was “hydrophilic pre-peak that increased as a function of thermal stress”, the “Kdis” value [3] was 7.89e-05 s⁻¹ and the “Kon” value [3] was 110000 M⁻¹ s⁻¹. For the same molecule, the Kd ([3]; 50 nM antigen (Ab1: 300 nM)) was 0.721 nM, the “Kdis” value [4] was 3.28e-06 s⁻¹ and the “Kon” value [4] was 236000 M⁻¹ s⁻¹.
